Source: US20240101959A1, “USE OF IL-2R-BETA-GAMMA AGONIST PEPTIDES IN CELL MANUFACTURING” (MEDIKINE, INC., priority 2022, published 2024)
Positions of bridges follow the written chain, without caps; N, C: chain ends. No end group written: not given here.

target: T1, hu-IL-2Rβ subunit (human, UniProt P14784 27-240, limits assumed); experiment: phage ELISA competition assay
T1 construct: also called human interleukin-2 receptor subunit β; CD122
T1 sequence (looked up): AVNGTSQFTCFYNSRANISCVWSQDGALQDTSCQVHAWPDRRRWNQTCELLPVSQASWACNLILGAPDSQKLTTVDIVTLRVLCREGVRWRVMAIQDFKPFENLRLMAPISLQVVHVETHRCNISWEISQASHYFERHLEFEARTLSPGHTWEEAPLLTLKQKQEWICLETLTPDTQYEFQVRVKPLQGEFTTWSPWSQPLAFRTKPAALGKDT

IC50, < 100 µM:
GSGWQPCWMADLGELCDLDNEK [SEQ ID NO 236]
WYPCWMAQLGELCDHEWPSYGA [SEQ ID NO 233]
QTGSYPCWIAHLGELCDLEGSA [SEQ ID NO 247]
WKPCWRAQLGELCDLELGPSER [SEQ ID NO 229]
AVEFYPCWLARIGELCDLVEP [SEQ ID NO 340]
RRSWYPCRIAQLGELCDLDPRV (disulfide 7-16 (inferred)) [SEQ ID NO 238]
DLWQPCWMARLGELCDLKG [SEQ ID NO 249]
WDGWECGMDHDGWVCEFWGE [SEQ ID NO 253]
AHWSQPCWTAQLGELCDLDMGD [SEQ ID NO 245]
WLPCWIASLGELCDLDTGKRQG [SEQ ID NO 95]
MLGEWLCEMDQLGYLCYLDHGD [SEQ ID NO 252]
WYPCWIAQLGELCDLDAKGQRR [SEQ ID NO 337]
TNNFYPCWLAKLGDLCDFDDLN (disulfide 7-16 (inferred)) [SEQ ID NO 338]
WYPCGVAQPGDLCDLE [SEQ ID NO 251]
STGWYPCWIAEFGELCDLVKPH [SEQ ID NO 244]
WYSCGKAQLGELCDLDVESQPG [SEQ ID NO 222]
WTPCWIAHLGDLCDLEPQDDTD [SEQ ID NO 226]
WKPCFIASLGELCDLDQGSVEV [SEQ ID NO 227]
WYPCWMAQLGELCDLQTMGYSH [SEQ ID NO 93]
QKGFLPCWRAQLGQLCDMESQY [SEQ ID NO 235]
MGTGWQNYCRYAQLGELCLL [SEQ ID NO 250]
WYPCWIARVGELCDLEEGPVNR [SEQ ID NO 339]
RREWYPCWIAQVGELCDLPLI [SEQ ID NO 343]
QRNSFPCWLAQLGDLCDLGDWA [SEQ ID NO 240]
SRFWQPCWMAQLGELCHLDPQM [SEQ ID NO 242]
TGWWYPCWMAQLGELCDLQQT (disulfide 7-16 (inferred)) [SEQ ID NO 248]
QPAWLPCWLAQLGELCDLGTGA [SEQ ID NO 241]
WKPCWMAALGELCDLERSVGKV [SEQ ID NO 228]
WRRWYPCWMAQLGELCDLDQWT [SEQ ID NO 237]
YLNFNPCWTAQLGELCDLASGE [SEQ ID NO 243]
AGDWLPCWMAELGELCDLEGPT [SEQ ID NO 94]
WYPCWIARVGELCDME (disulfide 4-13 (inferred)) [SEQ ID NO 342]
WYPCWIARVGELCDLE [SEQ ID NO 553]
SKPCWLAQLGDLCDFDWTAADH [SEQ ID NO 224]
YWPCSMASLGELCDLEWQGRLP [SEQ ID NO 231]
WFPCWMAQLGDLCELEPDSVPA [SEQ ID NO 225]
WYPCWLAQLGDLCDLD [SEQ ID NO 87]
WHPCWIAHLGELCDLE [SEQ ID NO 388]
WYPCWLAHLGELCDLA [SEQ ID NO 395]
WYPCWLAQLGELCDLD [SEQ ID NO 130]
WYPCWLAHLGELCDLE [SEQ ID NO 369]
WYPCWVAQLGELCDLE [SEQ ID NO 462]
WYPCWMARLGELCDLE [SEQ ID NO 137]
WHPCWIAQLGELCDLE [SEQ ID NO 147]
WYPCWMARMGELCDLE [SEQ ID NO 384]
WYPCWVAKLGELCDLE [SEQ ID NO 472]
WYPCWLAQLGELCDLD [SEQ ID NO 361]
RYPCWIAQLGELCDLD [SEQ ID NO 387]
WYPCWLAQVGELCDLD [SEQ ID NO 554]
WYPCWMAHLGELCDLE [SEQ ID NO 474]
WYPCWIAKLGELCDLE [SEQ ID NO 142]
WYPCWIAHLGELCDLE [SEQ ID NO 341]
WYPCWMAQLGELCDMD (disulfide 4-13 (inferred)) [SEQ ID NO 376]
WYPCWIAQLGELCDLV [SEQ ID NO 352]
WYPCWIAQLGELCDLE [SEQ ID NO 148]
HPVRYPCWVAQLGELCDLENGN [SEQ ID NO 246]
FFPCWMGQLGDLCDLEVRSMQK [SEQ ID NO 230]
WYPCYMASLGELCDLQSSISPR [SEQ ID NO 232]
AYRIYPCWKAQLGELCDLDNAD [SEQ ID NO 239]
MGSWLPCWMAQLGDLCDVEGGM [SEQ ID NO 234]
YVPCYMARLGELCELEANRPGQ [SEQ ID NO 223]
